Measured values taken from the supplement of paper PMC7125110.
± gives the standard error. Fewer inactive variants are shown than the library holds.

B1: glmS ribozyme (parent)
chain: AUAAAAGCGCCAGAACUACAGAAAUGUAGUUGACGAGGAGGAGGUUUAUCGAAUUUUCGGCGGAUGCCUCCAAA

Experiments:
Conditions in all cases: with glucosamine-6-phosphate
glucosamine-6-phosphate [1] = variants of: B1; assay: self-cleavage kobs at 40 uM GlcN6P; higher = faster cleavage; RNA array
Outline: (§1)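 Ribozyme variants carrying barcodes were transcribed in situ on sequenced MiSeq chips by E. coli RNA polymerase and tracked at 37 °C with a hybridised Cy3 probe. They were exposed to 40 μM to 10 mM glucosamine-6-phosphate in HEPES/KCl/Mg(OAc)2 buffer. kobs came from exponential decay fits of normalised per-tile medians, and kcat and KM from weighted Michaelis–Menten fits.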

glucosamine-6-phosphate [2] = variants of: B1; assay: self-cleavage kobs at 160 uM GlcN6P; higher = faster cleavage; RNA array
Outline: as §1

glucosamine-6-phosphate [3] = variants of: B1; assay: self-cleavage kobs at 640 uM GlcN6P; higher = faster cleavage; RNA array
Outline: as §1

glucosamine-6-phosphate [4] = variants of: B1; assay: self-cleavage kobs at 10000 uM GlcN6P; higher = faster cleavage; RNA array
Outline: as §1

glucosamine-6-phosphate [5] = variants of: B1; assay: self-cleavage kobs at 2500 uM GlcN6P; higher = faster cleavage; RNA array
Outline: as §1

Variant | self-cleavage kobs at 40 uM GlcN6P (glucosamine-6-phosphate [1]) | self-cleavage kobs at 160 uM GlcN6P (glucosamine-6-phosphate [2]) | self-cleavage kobs at 640 uM GlcN6P (glucosamine-6-phosphate [3]) | self-cleavage kobs at 10000 uM GlcN6P (glucosamine-6-phosphate [4]) | self-cleavage kobs at 2500 uM GlcN6P (glucosamine-6-phosphate [5])
G43U G51A U65G G66A | < 1e-05 s⁻¹ | – | – | – | –
A42G C68U | 0.000563 ± 7.3e-05 s⁻¹ | 0.000735 ± 0.00016 s⁻¹ | 0.00237 ± 0.00041 s⁻¹ | 0.0168 ± 0.0034 s⁻¹ | –
U47A U56A | 0.00024 ± 5.3e-05 s⁻¹ | 0.000539 ± 0.0001 s⁻¹ | 0.00196 ± 0.00027 s⁻¹ | 0.0235 ± 0.0091 s⁻¹ | 0.00548 ± 0.0015 s⁻¹
A42U U46G C50U C70U | < 1e-05 s⁻¹ | – | – | < 1e-05 s⁻¹ | –
A42G U55G G59C | < 1e-05 s⁻¹ | – | – | – | < 1e-05 s⁻¹
G44C U65G | < 1e-05 s⁻¹ | < 1e-05 s⁻¹ | < 1e-05 s⁻¹ | – | –
G43U C50G U54G A64U C71U | 7.77e-05 ± 3e-05 s⁻¹ | – | – | 0.00156 ± 0.00062 s⁻¹ | –
A42C G59C | < 1e-05 s⁻¹ | < 1e-05 s⁻¹ | < 1e-05 s⁻¹ | < 1e-05 s⁻¹ | < 1e-05 s⁻¹
A42G U49C | < 1e-05 s⁻¹ | < 1e-05 s⁻¹ | < 1e-05 s⁻¹ | < 1e-05 s⁻¹ | < 1e-05 s⁻¹
A42U U46C | < 1e-05 s⁻¹ | < 1e-05 s⁻¹ | < 1e-05 s⁻¹ | – | –
U47G C67U | 0.000141 ± 2.6e-05 s⁻¹ | 0.000305 ± 5.6e-05 s⁻¹ | 0.00064 ± 8.6e-05 s⁻¹ | 0.00343 ± 0.00067 s⁻¹ | 0.00125 ± 0.0002 s⁻¹
G43C A53C U56C | < 1e-05 s⁻¹ | < 1e-05 s⁻¹ | – | < 1e-05 s⁻¹ | < 1e-05 s⁻¹
G43U U46A U57C C70A | < 1e-05 s⁻¹ | – | < 1e-05 s⁻¹ | < 1e-05 s⁻¹ | –
U47C A48G C50G C70G | 3.16e-05 ± 1.6e-05 s⁻¹ | – | – | – | –
G44U C70A | < 1e-05 s⁻¹ | < 1e-05 s⁻¹ | < 1e-05 s⁻¹ | < 1e-05 s⁻¹ | < 1e-05 s⁻¹
U47C A48U C70U | < 1e-05 s⁻¹ | – | 3.27e-05 ± 1.2e-05 s⁻¹ | 0.00044 ± 9.8e-05 s⁻¹ | –
U46C C61G | < 1e-05 s⁻¹ | < 1e-05 s⁻¹ | < 1e-05 s⁻¹ | – | < 1e-05 s⁻¹
G44A G63A | < 1e-05 s⁻¹ | < 1e-05 s⁻¹ | < 1e-05 s⁻¹ | – | < 1e-05 s⁻¹
A42U G62U | < 1e-05 s⁻¹ | < 1e-05 s⁻¹ | < 1e-05 s⁻¹ | – | < 1e-05 s⁻¹
G43A C50G | < 1e-05 s⁻¹ | < 1e-05 s⁻¹ | < 1e-05 s⁻¹ | < 1e-05 s⁻¹ | –

Variant | self-cleavage kobs at 40 uM GlcN6P (glucosamine-6-phosphate [1]) | self-cleavage kobs at 160 uM GlcN6P (glucosamine-6-phosphate [2]) | self-cleavage kobs at 640 uM GlcN6P (glucosamine-6-phosphate [3]) | self-cleavage kobs at 10000 uM GlcN6P (glucosamine-6-phosphate [4]) | self-cleavage kobs at 2500 uM GlcN6P (glucosamine-6-phosphate [5])
U46A G51C | < 1e-05 s⁻¹ | – | < 1e-05 s⁻¹ | < 1e-05 s⁻¹ | < 1e-05 s⁻¹
U45A U55C | 0.000654 ± 0.00021 s⁻¹ | – | 0.00526 ± 0.0015 s⁻¹ | 0.024 ± 0.0085 s⁻¹ | 0.00714 ± 0.0029 s⁻¹
A42U G44A U65G | < 1e-05 s⁻¹ | < 1e-05 s⁻¹ | < 1e-05 s⁻¹ | < 1e-05 s⁻¹ | < 1e-05 s⁻¹
G41U U65C | < 1e-05 s⁻¹ | < 1e-05 s⁻¹ | – | 2.23e-05 ± 7.2e-06 s⁻¹ | –
A48C A64C | < 1e-05 s⁻¹ | < 1e-05 s⁻¹ | – | – | < 1e-05 s⁻¹
A42G G43U | < 1e-05 s⁻¹ | < 1e-05 s⁻¹ | < 1e-05 s⁻¹ | – | < 1e-05 s⁻¹
G44C G59C | < 1e-05 s⁻¹ | – | < 1e-05 s⁻¹ | < 1e-05 s⁻¹ | < 1e-05 s⁻¹
U45A C67A | 0.000364 ± 5.5e-05 s⁻¹ | – | – | 0.00719 ± 0.0014 s⁻¹ | 0.00568 ± 0.0022 s⁻¹
A42U G60U | < 1e-05 s⁻¹ | < 1e-05 s⁻¹ | < 1e-05 s⁻¹ | – | –
U47G U56G C61U C67G C70U | 0.000123 ± 6.1e-05 s⁻¹ | – | 0.000281 ± 8.9e-05 s⁻¹ | 4.99e-05 ± 1.9e-05 s⁻¹ | –
G43A G44U U55C | < 1e-05 s⁻¹ | – | – | < 1e-05 s⁻¹ | –
A42G G44A A48G U57C C67A | < 1e-05 s⁻¹ | – | – | – | –
G44U U45C | < 1e-05 s⁻¹ | – | – | – | –
G43C U47A | < 1e-05 s⁻¹ | – | < 1e-05 s⁻¹ | – | < 1e-05 s⁻¹
U47G C70U | 0.000323 ± 3.2e-05 s⁻¹ | 0.000641 ± 8.8e-05 s⁻¹ | 0.00192 ± 0.00055 s⁻¹ | – | 0.000583 ± 0.00011 s⁻¹
U47A U49C | < 1e-05 s⁻¹ | – | < 1e-05 s⁻¹ | – | < 1e-05 s⁻¹
U45A G60A | < 1e-05 s⁻¹ | < 1e-05 s⁻¹ | – | – | –
A42C A52U C61U | < 1e-05 s⁻¹ | – | < 1e-05 s⁻¹ | – | –
U45A U54G | 0.00129 ± 0.00023 s⁻¹ | 0.00383 ± 0.00079 s⁻¹ | 0.0132 ± 0.0028 s⁻¹ | 0.0501 ± 0.011 s⁻¹ | 0.0113 ± 0.0021 s⁻¹
A42U U69A | 0.00293 ± 0.00038 s⁻¹ | 0.00511 ± 0.0011 s⁻¹ | 0.0164 ± 0.0051 s⁻¹ | 0.101 ± 0.036 s⁻¹ | 0.0275 ± 0.012 s⁻¹
